{"source": "paper PMC11211449", "biological_target": "recombinant prefusion RV3 F antigen (human respirovirus 3 fusion glycoprotein, prefusion conformation) (human respirovirus 3 (RV3))", "test": "cryo-EM structure", "data": [{"substance": "recombinant prefusion RV3 F antigen (human respirovirus 3 fusion glycoprotein, prefusion conformation) (natural protein)", "values": [{"measurement": "stoichiometry N", "result": 3}]}]}
